According to patent publication US20260286322A1, “PROTEIN TYROSINE P[…] DOMAIN PEPTIDE DIMER FOR NERVOUS SYSTEM REPAIR” (NervGen Pharma Corp., priority 2023, published 2026):
Ends that are not written are not given here.

Key:
[1] = In vitro stability in rat plasma; type: in vitro ADME; details: after 30 minutes of incubation, 37° C., 1.6 μM
Protocol: (§1) Stability of Compound 7 (human variant) in physiological buffer (Hanks Balanced Salt Solution, HBSS) and in plasma was evaluated in comparison with Compound 3.
(§2) Compound stability was defined as % recovery of the compound after 5 min, 15 min, and 30 min of incubation in the presence of corresponding plasma.
(§3) 200 μL of 1.6 μM Compound 3 and Compound 7 solutions were incubated in the matrix (Hank's Balanced Salt Solution or plasma) at 37° C. for 0, 5, 15, or 30 minutes. The incubation was followed by addition of 200 μL acetonitrile, vortexing and subsequent acidification with 45 μL of pure acetic acid. After additional vortexing, the resulting mixture was centrifuged for 5 min at 14,000 rpm and the supernatant was collected for analysis.
(§4) Determination of the Compound 3 or Compound 7 levels in the supernatant samples prepared as described above was performed using an LC-MS/MS method as follows: 40 μL of 5 μM Compound 7 in 10% acetic acid aqueous solution was added to 160 μL of the supernatant. […]
(§5) Percentages of Compound 3 and Compound 7 recovery after 0 minutes (at the start of the experiment), 5 minutes, 15 minutes, and 30 minutes incubation time points were calculated by dividing the corresponding peak areas by the peak area obtained from the samples prepared with no incubation (0 minutes of incubation time). […]

[2] = In vitro stability in human plasma; type: in vitro ADME; details: after 30 minutes of incubation, 37° C., 1.6 μM
Protocol: as §1, §2, §3, §4, §5

[3] = In vitro stability in physiological buffer (Hanks Balanced Salt Solution, HBSS); type: physicochemical; details: 30 minutes incubation, 37° C., 1.6 μM
Protocol: as §1, §2, §3, §4, §5

[4] = In vitro stability in dog plasma; type: in vitro ADME; details: after 30 minutes of incubation, 37° C., 1.6 μM
Protocol: as §1, §2, §3, §4, §5

[5] = Self-assembly by negative stain transmission electron microscopy; type: physicochemical; details: for colloidal structures from self-assembly in isotonic saline (TEM): 20 mg/mL in 0.9% (w/v) sodium chloride; for colloidal structures from self-assembly in water (TEM): 20 mg/mL in sterile water
Protocol: The patterns of self-assembly of Compound 7 and Compound 3 were analyzed by negative stain transmission electron microscopy.
Compound 3 and Compound 7 were dissolved in sterile water or in 0.9% (w/v) sodium chloride in sterile water to obtain a 20 mg/mL solution. Formvar/carbon coated grids were exposed to […] drops of the Compound 3 or Compound 7 solutions for approximately 1 minute, blotted and then exposed to […] drops of sterile water for 10 seconds, blotted again and then stained with 2% (w/v) aqueous uranyl acetate for 30 seconds, The stained samples were exposed to […] drops of sterile water for 10 seconds and blotted dry prior to examination by transmission electron microscopy.

Substance | recovery rate in rat plasma [1] | recovery rate in human plasma [2] | % recovery in HBSS [3] | recovery rate in dog plasma [4] | colloidal structures from self-assembly in isotonic saline (TEM) [5] | colloidal structures from self-assembly in water (TEM) [5]
TAT-Cys-PTPRS (GRKKRRQRRRCDMAEHTERLKANDSLKLSQEYESI) [Compound 3] | low stability | low stability | about 42% | low stability | amyloid-like fibrillar meshwork | rod-shaped nanostructures
TAT-Cys-human PTPRS wedge domain homodimer (GRKKRRQRRRCDMAEHTERLKANDSLKLSQEYESI; also: disulfide homodimer) [Compound 7] | 92% | 99% | 90% | 100% | larger-in-size helical colloidal particles | rod-shaped nanostructures
